Experimental data as given in US20210069342A1 (LEGOCHEM BIOSCIENCES, published 2021).
Substitutions are numbered along the chain they refer to.

B1: anti-ROR1 IgG antibody A2F3 (antibody, V domains shown)
VH: EVQLLESGGGLVQPGGSLRLSCAASGFTFSSYDMSWVRQAPGKGLEWVSWISPGGGSKYYADSVKGRFTISRDNSKNTLYLQMNSLRAEDTAVYYCARVNGRFDYWGQGTLVTVSS
VL: QSVLTQPPSASGTPGQRVTISCSGSSSNIGNNNVSWYQQLPGTAPKLLIYADSHRPSGVPDRFSGSKSGTSASLAISGLRSEDEADYYCATWDYSLSGYVFGGGTKLTVLG
notes: Full IgG form (human IgG1 constant region, lambda light chain), expressed in CHO-S cells
B2: anti-ROR1 IgG antibody A2F2 (antibody, V domains shown)
VH: EVQLLESGGGLVQPGGSLRLSCAASGFTFSDYYMSWVRQAPGKGLEWVSSISPDGSNTYYADSVKGRFTISRDNSKNTLYLQMNSLRAEDTAVYYCAKNLRAFDYWGQGTLVTVSS
VL: B1 VL with S9P, N31S, N33T, S35Y, D52N, H54Q, A90G, T91S
notes: as for B1
B3: anti-ROR1 IgG antibody D2B12 (antibody, V domains shown)
VH: EVQLLESGGGLVQPGGSLRLSCAASGFTFSNYDMSWVRQAPGKGLEWVSSISPSSGSSIYYADSVKGRFTISRDNSKNTLYLQMNSLRAEDTAVYYCAKAPGWCQAPSCYYDNAMDVWGQGTLVTVSS
VL: B1 VL with N33D, A51D, H54Q, A90G, T91A, Y94D
notes: as for B1
B4: anti-ROR1 IgG antibody BA6 (antibody, V domains shown)
VH: EVQLLESGGGLVQPGGSLRLSCAASGFTFSNYDMSWVRQAPGKGLEWVSAIYHSGSSKYYADSVKGRFTISRDNSKNTLYLQMNSLRAEDTAVYYCARGGNGAWDTGFDYWGQGTLVTVSS
VL: B1 VL with N31S, N33D, A51Y, S53N, H54N, A90G, T91A, Y94D
notes: as for B1
B5: anti-ROR1 IgG antibody CC9 (antibody, V domains shown)
VH: EVQLLESGGGLVQPGGSLRLSCAASGFTFSSYDMSWVRQAPGKGLEWVSGISHGSGNKYYADSVKGRFTISRDNSKNTLYLQMNSLRAEDTAVYYCAKRLSLRRRPSYYSDNAMDVWGQGTLVTVSS
VL: B1 VL with S23T, N33A, S35N, A51Y, H54N, A90G, T91A, Y94D
notes: as for B1
B6: anti-ROR1 IgG antibody BA6 M1 (antibody, V domains shown)
VH: B4 VH with G102A
VL: B1 VL with N31S, N33D, A51Y, S53N, H54N, A90G, T91A, Y94D
notes: as for B1
B7: anti-ROR1 IgG antibody A2F2 M1 (antibody, V domains shown)
VH: B2 VH with G55A
VL: B1 VL with S9P, N31S, N33T, S35Y, D52N, H54Q, A90G, T91S
notes: as for B1

Tests used:
[1] = target: T1, human ROR2 over-expressed on CHO cells (CHO-human ROR2) (human, UniProt Q01974 34-943); assay: flow cytometry on CHO-S cells transiently over-expressing human ROR2, FITC anti-human Fc detection, MFI ratio to 2nd Ab alone
T1 construct: whole, on cells; Negative control; also called family protein human ROR2
T1 sequence (Q01974 34-943): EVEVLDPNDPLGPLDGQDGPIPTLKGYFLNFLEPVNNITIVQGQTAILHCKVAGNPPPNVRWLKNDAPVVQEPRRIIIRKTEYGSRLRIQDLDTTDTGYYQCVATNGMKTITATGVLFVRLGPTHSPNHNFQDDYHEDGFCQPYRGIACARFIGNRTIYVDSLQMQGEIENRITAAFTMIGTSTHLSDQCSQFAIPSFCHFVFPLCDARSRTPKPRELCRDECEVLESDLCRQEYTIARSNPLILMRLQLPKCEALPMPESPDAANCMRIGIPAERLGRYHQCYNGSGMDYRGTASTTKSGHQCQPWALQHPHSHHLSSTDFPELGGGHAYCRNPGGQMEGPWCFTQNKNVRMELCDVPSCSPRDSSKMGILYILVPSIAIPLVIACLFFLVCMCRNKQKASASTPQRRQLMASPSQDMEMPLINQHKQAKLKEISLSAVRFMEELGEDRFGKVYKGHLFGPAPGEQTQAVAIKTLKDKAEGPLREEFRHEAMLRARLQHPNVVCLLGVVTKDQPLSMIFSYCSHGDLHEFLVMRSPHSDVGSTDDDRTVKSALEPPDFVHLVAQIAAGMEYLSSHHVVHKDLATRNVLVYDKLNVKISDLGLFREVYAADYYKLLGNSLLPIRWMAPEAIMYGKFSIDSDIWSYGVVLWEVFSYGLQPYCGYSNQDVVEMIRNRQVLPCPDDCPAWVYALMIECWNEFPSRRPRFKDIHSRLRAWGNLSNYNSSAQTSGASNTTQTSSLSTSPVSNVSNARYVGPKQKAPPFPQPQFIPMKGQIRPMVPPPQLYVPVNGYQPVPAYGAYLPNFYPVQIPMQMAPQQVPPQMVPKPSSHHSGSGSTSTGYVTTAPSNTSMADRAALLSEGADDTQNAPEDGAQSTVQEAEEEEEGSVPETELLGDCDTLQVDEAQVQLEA
Text: (§1) For this experiment, using cell lines (FIG. 5 and FIG. 7, respectively) transiently (CHO-human ROR1, CHO-human ROR2, CHO-mouse ROR1) or stably (MC38-human ROR1) transfected with ROR1 gene to achieve artificial over-expression of ROR1 protein, an ROR1-expressing cell line (JeKo-1, Mino) (FIG. 6), a non ROR1-expressing cell line (MCF7) (FIG. 6) and a FACSCalibur (BD Biosciences) device was used to measure the degree to which anti-ROR1 antibody and ROR1 were bound, as follows. […] JeKo-1, Mino, CHO-human ROR1, CHO-mouse ROR1 and MC38-human ROR1 are all cell lines which express human ROR1 or mouse ROR1.
(§2) Specifically, after dissociating each cell line and washing in PBS, the number of cells was counted and adjusted to 2×10⁵ cells/200 PBS. Then the respective ROR1 monoclonal antibodies prepared in Embodiment 3 were diluted 5 times from 10 /mL or 10 /mL, then reacted for 1 hour at 4° C. After the reaction, the cells were washed in PBS, then FITC-marked constant region (Fc) specific antibody (Goat anti-human IgG FITC conjugate, Fc specific, Sigma, F9512, concentration 20 mg/ml) was suspended in 2 /1×10⁵ cells/200 PBS and reacted for 1 hour at 4° C. As for identification of the degree of expression of the transiently over-expressed human ROR1, human ROR2 and mouse ROR1, a commercially available FACS analysis antibody (anti-ROR1: R&D Systems, FAB 2000G, anti-ROR2: R&D, FAB20641P) was used. After reacting the cells were washed in PBS and analyzed using a FACSCalibur device. The negative control (2nd Ab) was only treated with FITC-marked constant region (Fc) specific antibody. The shifted readings for the respective experimental groups treated with ROR1 monoclonal antibody were compared against the shifted reading for the control group (MFI Ratio: MFI of anti-ROR1/MFI of 2nd Ab).

[2] = target: T2, recombinant human ROR1-His (Sino Biological, 13968-H08H) (human, UniProt Q01973 30-406); assay: ELISA, wells coated with human ROR1 protein (sheet: 'human ROR1'; text: ROR1-Fc or ROR1-His), IgG titrated, HRP anti-Fab detection, OD (450-650nm)
T2 construct: extracellular domain; Bought protein; also called ROR1-HIS protein; not shown: His tag
T2 sequence (Q01973 30-406): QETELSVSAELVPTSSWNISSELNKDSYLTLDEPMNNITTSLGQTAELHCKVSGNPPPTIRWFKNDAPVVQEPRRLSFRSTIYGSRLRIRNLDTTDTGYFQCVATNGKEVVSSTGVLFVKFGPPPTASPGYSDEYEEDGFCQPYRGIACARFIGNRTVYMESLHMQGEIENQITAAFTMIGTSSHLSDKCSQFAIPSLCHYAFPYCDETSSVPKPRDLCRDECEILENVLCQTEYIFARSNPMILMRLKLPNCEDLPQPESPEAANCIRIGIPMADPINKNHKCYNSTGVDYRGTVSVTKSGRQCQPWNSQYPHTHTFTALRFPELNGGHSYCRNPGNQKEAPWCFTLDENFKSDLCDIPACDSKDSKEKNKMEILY
Protocol: (§3) Anti-ROR1 antibody antigen binding affinity was assessed using an ELISA-based solution binding assay. Specifically, a 96-well microtiter plate (Nunc-Immuno Plates), NUNC) was coated for 16 hours at 4° C. with the ROR1 protein described below at a concentration of 1 in PBS solution, and non-specific binding sites were blocked for 2 hours with 3% BSA (bovine serum albumin). Here, the ROR1 protein used was, in the case of human ROR1, the ROR1-Fc or recombinant human ROR1-His (Sino Biological, 13968-H08H) of Embodiment 1. The ROR1-His used in ELISA, as stated in the above sentence, was a protein from the Sino Biological company (13968-H08H), and the ROR1-His of Embodiment 1 or recombinant mouse ROR1 protein was used (Acrobiosystems, RO1-M5221-100 )
(§4) Subsequently, the anti-ROR1 antibodies prepared in Embodiment 3 were added at the concentrations stated in FIG. 2 to a 96-well microtiter plate, and binding capacity was analyzed using ELISA as follows. Specifically, after incubating for 2 hours, the plate was washed 5 times with PBS containing 0.05% Tween 20, then HRP-conjugated Fab multiclonal antibody reagent (Perce, 31414) was diluted to 1:10,000 and placed in the washed microtiter plate. After reacting for 1 hour at 37° C., the ROR1 antibodies bonded to the plate were detected. After the reaction, color development was performed using TMB (Tetramethylbenzidine, Sigma, T0440). The enzymatic reaction was stopped using 0.5 mol/L sulfuric acid, and absorbance at 450 nm and 650 nm was measured (450 nm-650 nm) using a micro plate reader (Molecular Device)

[3] = target: T2, recombinant human ROR1-His (Sino …); assay: BLI (Octet), ROR1-His on Anti-Penta-His or AR2G biosensor, IgG 30 to 0.021 nM, 1:1 fit
Protocol: A 96-well black microplate (greiner bio one) was mounted on a biosensor tray case, and 200 10×KB or DW was added to each of 8 wells. Then Anti Penta His biosensors or 8 AR2G biosensors (ForteBio, USA) were inserted to hydrate for 10 minutes. 600 of the assay samples were diluted 2-fold or 3-fold to the appropriate assay concentrations, using 1×KB or 10×KB to 30 to 0.021 nM. To immobilize the antigen, recombinant human ROR1-His (Sino Biological, 13968-H08H) was diluted to 1 /ML with 10×KB or Sodium Acetate pH5 buffer. Immobilization was fixed at a threshold of 0.3 nm in the loading step. The association assay was carried out for 3 to 10 minutes, and the dissociation assay was carried out for 20 minutes. According to the Octet program template, the buffer was placed in a new 96-well black microplate according to order. As Baseline1, 200 10×KB or DW was placed. Then 200 each of 1 /mL of the antigen to be loaded, the ROR1-HIS protein, was added. As Baseline2, 200 10×KB or 1×KB was placed. Then to each well 30 to 0.021 nM of the diluted antibody and 200 each of 10×KB buffer or 1×KB corresponding to a reference blank was added. The temperature of the test plate was fixed at 30° C. After all of the samples were introduced, the equipment was started, and after the assay was completed, results were uploaded to the Octet Analysis 90 software, with KD values analyzed through 1:1 fitting. By obtaining KD values through the Octet assay method, it was confirmed that the anti-ROR1 antibody had strong binding potential to ROR1 antigen.

[4] = target: T3, recombinant mouse ROR1 protein (Acrobiosystems, RO1-M5221) (mouse, UniProt Q9Z139 30-403); assay: ELISA, wells coated with recombinant mouse ROR1 protein, IgG titrated, HRP anti-Fab detection, OD (450-650nm)
T3 construct: Bought protein; also called mouse ROR1 antigen
T3 sequence (Q9Z139 30-403 limits assumed): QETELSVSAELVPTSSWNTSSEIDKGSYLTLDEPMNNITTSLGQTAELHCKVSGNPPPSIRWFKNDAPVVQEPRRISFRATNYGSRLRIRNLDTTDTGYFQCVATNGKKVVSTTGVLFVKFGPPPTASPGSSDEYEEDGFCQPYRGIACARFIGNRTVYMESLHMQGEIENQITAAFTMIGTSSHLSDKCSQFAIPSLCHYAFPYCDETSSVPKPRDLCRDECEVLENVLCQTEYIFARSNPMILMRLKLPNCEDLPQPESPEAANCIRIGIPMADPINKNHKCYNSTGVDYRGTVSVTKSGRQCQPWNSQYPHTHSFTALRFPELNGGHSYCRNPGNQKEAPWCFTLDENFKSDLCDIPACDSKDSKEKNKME
Protocol: as §3, §4

[5] = target: T4, human ROR1 expressed on the cell surface (human, UniProt Q01973 30-937); assay: flow cytometry on MC38-human ROR1 cells, IgG titrated, FITC anti-human Fc detection, MFI ratio to 2nd Ab alone; log axis whose first tick is printed 0
T4 construct: whole, on cells; also called cell surface-expressed ROR1 antigen; ROR1 on JeKo-1, Mino, CHO-human ROR1, MC38-human ROR1 and other cancer cell lines
T4 sequence (Q01973 30-937): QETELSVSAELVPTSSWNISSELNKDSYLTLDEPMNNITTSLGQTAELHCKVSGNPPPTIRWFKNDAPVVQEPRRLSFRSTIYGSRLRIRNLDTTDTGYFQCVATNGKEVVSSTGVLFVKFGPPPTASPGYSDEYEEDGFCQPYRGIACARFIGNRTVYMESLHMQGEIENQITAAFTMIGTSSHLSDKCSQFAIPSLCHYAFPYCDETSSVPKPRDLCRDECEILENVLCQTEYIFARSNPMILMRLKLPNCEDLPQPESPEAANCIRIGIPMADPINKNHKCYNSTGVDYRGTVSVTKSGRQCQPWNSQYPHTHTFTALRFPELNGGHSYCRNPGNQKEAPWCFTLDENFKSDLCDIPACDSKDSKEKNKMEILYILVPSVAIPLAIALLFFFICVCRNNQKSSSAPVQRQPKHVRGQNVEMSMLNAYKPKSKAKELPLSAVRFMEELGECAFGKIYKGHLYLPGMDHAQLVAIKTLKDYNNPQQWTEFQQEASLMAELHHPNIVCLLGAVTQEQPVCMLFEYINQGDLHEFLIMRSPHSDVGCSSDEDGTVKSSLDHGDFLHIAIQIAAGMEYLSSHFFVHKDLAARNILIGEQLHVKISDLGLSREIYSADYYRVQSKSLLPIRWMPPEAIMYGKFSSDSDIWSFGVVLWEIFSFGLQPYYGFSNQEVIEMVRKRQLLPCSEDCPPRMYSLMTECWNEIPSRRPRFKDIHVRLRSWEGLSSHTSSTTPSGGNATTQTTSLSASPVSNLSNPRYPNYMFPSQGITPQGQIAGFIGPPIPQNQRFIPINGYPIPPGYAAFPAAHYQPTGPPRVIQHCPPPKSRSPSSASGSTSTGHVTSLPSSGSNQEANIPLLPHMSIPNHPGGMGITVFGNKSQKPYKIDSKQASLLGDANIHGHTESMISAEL
Text: as §1, §2

[6] = target: T2, recombinant human ROR1-His (Sino …); assay: ELISA, wells coated with human ROR1 protein (sheet: 'human ROR1'; text: ROR1-Fc or ROR1-His), IgG titrated, OD(450nm-650nm); x axis 'conc(nM)' numbered -5 to 2 (log10)
Protocol: as §3, §4

[7] = target: T5, mouse ROR1 over-expressed on CHO cells (CHO-mouse ROR1) (mouse, UniProt Q9Z139 30-937); assay: flow cytometry on CHO-S cells transiently over-expressing mouse ROR1, FITC anti-human Fc detection, MFI ratio to 2nd Ab alone
T5 construct: whole, on cells; also called cell surface-expressed mouse ROR1
T5 sequence (Q9Z139 30-937): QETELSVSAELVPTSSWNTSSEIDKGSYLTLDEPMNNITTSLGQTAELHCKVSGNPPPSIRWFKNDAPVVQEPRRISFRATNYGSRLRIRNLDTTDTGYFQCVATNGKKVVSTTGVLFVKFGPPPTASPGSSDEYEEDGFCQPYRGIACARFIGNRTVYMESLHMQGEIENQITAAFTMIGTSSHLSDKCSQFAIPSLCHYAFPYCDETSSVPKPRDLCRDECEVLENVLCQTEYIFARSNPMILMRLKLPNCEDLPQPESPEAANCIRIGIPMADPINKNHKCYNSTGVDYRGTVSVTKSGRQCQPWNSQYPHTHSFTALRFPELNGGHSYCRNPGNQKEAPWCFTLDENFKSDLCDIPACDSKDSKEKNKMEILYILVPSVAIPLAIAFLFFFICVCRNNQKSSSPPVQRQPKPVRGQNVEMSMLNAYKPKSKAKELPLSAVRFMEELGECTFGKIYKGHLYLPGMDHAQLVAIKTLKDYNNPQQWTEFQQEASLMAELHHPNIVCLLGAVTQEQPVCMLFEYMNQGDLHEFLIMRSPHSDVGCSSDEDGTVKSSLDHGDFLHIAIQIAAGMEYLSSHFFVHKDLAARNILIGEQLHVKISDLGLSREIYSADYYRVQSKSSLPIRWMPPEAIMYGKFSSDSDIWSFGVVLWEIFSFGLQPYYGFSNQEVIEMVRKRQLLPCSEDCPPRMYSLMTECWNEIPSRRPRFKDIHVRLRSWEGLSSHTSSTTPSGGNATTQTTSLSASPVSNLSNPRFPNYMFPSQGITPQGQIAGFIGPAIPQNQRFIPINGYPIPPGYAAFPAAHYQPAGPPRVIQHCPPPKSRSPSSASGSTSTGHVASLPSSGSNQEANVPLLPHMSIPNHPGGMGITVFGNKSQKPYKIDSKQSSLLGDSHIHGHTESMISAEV
Text: as §1
(§5) Specifically, after dissociating each cell line and washing in PBS, the number of cells was counted and adjusted to 2×10⁵ cells/200 PBS. Then the respective ROR1 monoclonal antibodies prepared in Embodiment 3 were diluted 5 times from 10 /mL or 10 /mL, then reacted for 1 hour at 4° C. […] After reacting the cells were washed in PBS and analyzed using a FACSCalibur device. […] The shifted readings for the respective experimental groups treated with ROR1 monoclonal antibody were compared against the shifted reading for the control group (MFI Ratio: MFI of anti-ROR1/MFI of 2nd Ab).

[8] = target: T5, mouse ROR1 over-expressed on CHO cells …; assay: flow cytometry, CHO-mouse ROR1 cells
Text: as §1, §2

[9] = target: T1, human ROR2 over-expressed on CHO cells …; assay: flow cytometry, CHO-human ROR2 cells
Text: as §1, §5

[10] = target: T3, recombinant mouse ROR1 protein …; assay: ELISA, IgG on coated mouse ROR1
Protocol: as §3
Subsequently, the anti-ROR1 antibodies prepared in Embodiment 3 were added at the concentrations stated in FIG. 2 to a 96-well microtiter plate, and binding capacity was analyzed using ELISA as follows. […] After reacting for 1 hour at 37° C., the ROR1 antibodies bonded to the plate were detected. […] The enzymatic reaction was stopped using 0.5 mol/L sulfuric acid, and absorbance at 450 nm and 650 nm was measured (450 nm-650 nm) using a micro plate reader (Molecular Device)

Binder | binding result [1] | EC50 (read off the curve) [2] | Kd [3] | koff [3] | kon [3] | EC50 (read off the curve) [4] | EC50 (read off the curve) [5] | EC50 (read off the curve) [6] | binding result [7] | binding result [4] | binding result [8] | binding result [9] | binding result [10]
B1 | no binding | ~0.6 nM | 0.024 nM | 3.31e-05 s⁻¹ | 1.38e+06 M⁻¹ s⁻¹ | ~0.7 nM | ~0.2 µg/mL |  |  |  |  |  | 
B2 | no binding | ~0.2 nM | 0.0773 nM | 0.000119 s⁻¹ | 1.53e+06 M⁻¹ s⁻¹ | ~0.3 nM | ~0.1 µg/mL | ~0.04 nM |  |  |  |  | 
B3 | no binding | ~0.2 nM | 0.803 nM | 0.000361 s⁻¹ | 450000 M⁻¹ s⁻¹ | ~0.3 nM | ~0.2 µg/mL |  |  |  |  |  | 
B4 | no binding | ~0.2 nM | 0.0937 nM | 0.000231 s⁻¹ | 2.47e+06 M⁻¹ s⁻¹ |  | ~0.1 µg/mL | ~0.05 nM | binds | binds |  |  | 
B5 |  | ~0.3 nM | 0.754 nM | 0.000551 s⁻¹ | 731000 M⁻¹ s⁻¹ |  |  |  |  | binds | binds | no binding | 
B6 |  |  |  |  |  |  |  | ~0.06 nM |  |  | binds |  | binds
B7 |  |  |  |  |  |  |  | ~0.04 nM |  |  | binds |  | binds
